From US20230122991A1, “GROWTH FACTOR FORMULATION FOR CONDITION ASSOCIATED WITH OTIC EVENT” (OTONOMY, INC., priority 2020, published 2023)

Key:
[1] = test system: adult male rats bilaterally exposed to noise; test: Noise-induced cochlear synaptopathy, ABR and wave I amplitude after delayed intratympanic injection (Example L); format: in vivo, rat; conditions: for ABR threshold shift: ABR at day 28, FIG. 21; for wave I amplitudes: day 28, FIG. 22
Description: (§1) Animals: Male Sprague-Dawley rats (5-6 months of age) were used for efficacy studies and females (2-3 months) were used for pharmacokinetic studies.
Formulations: Human recombinant BDNF was suspended in the thermoreversible polymer Poloxamer 407 (16%) to reach a BDNF concentration of 0.005%.
(§2) Intratympanic (IT) injection: Formulations were administered under anesthesia as a single IT injection (20 μl) through the tympanic membrane into the middle ear, targeting the round window membrane (RWM).
Noise-induced cochlear synaptopathy: Rats received a single acoustic trauma (105 dB SPL, 8-16 kHz, 1 h) under anesthesia. […] Auditory function (ABR and ABR wave 1 amplitude) was monitored at day 28. At termination (Day 28), cochleae were collected and assessed for evidence of cochlear synaptopathy (IHC synaptic puncta counts).
Intratympanic BDNF Injected 1, 3, or 7 Days After Acoustic Trauma improves Auditory Brainstem Response (ABR) thresholds and wave I amplitudes in adult rats. The Auditory Brainstem Response (ABR) is an objective test that measures hearing sensitivity and can identify abnormalities in the peripheral auditory system and the auditory pathway up through the brainstem. Adult male rats were bilaterally exposed to noise followed by an intratympanic injection of 0.005% BDNF in P407 1 day, 3 days, 7 days, or 14 days after noise exposure. ABR recordings were obtained at day 28.
The ABR Wave I amplitude is an indicator of the strength of the distal cochlear nerve signal, i.e., the response of the spiral ganglion neurons/synapses.

[2] = test system: adult male rats bilaterally exposed to noise; test: Noise-induced cochlear synaptopathy, ABR thresholds and wave I amplitude (Example G); format: in vivo, rat
Description: as §1
(§3) Formulations: Human recombinant BDNF was suspended in the thermoreversible polymer Poloxamer 407 (16%) to reach a range of BDNF concentrations.
as §2
(§4) Noise-induced cochlear synaptopathy: Rats (n=44 per treatment group) received a single acoustic trauma (105 dB SPL, 8-16 kHz, 1 h) under anesthesia. 24 hours later (Day 1) animals received a single bilateral IT injection of the treatment regimens. Auditory function (ABR and ABR wave 1 amplitude) was monitored at day 1 and then every 7 days for 28 days. At termination (Day 28), cochleae were collected and assessed for evidence of cochlear synaptopathy (IHC synaptic puncta counts).
(§5) Intratympanic BDNF improves Auditory Brainstem Response (ABR) thresholds and wave I amplitudes in adult rats. The Auditory Brainstem Response (ABR) is an objective test that measures hearing sensitivity and can identify abnormalities in the peripheral auditory system and the auditory pathway up through the brainstem. […]

[3] = test system: adult male rats bilaterally exposed to noise; test: Noise-induced cochlear synaptopathy, ABR and wave I amplitude at various BDNF concentrations (Example K); format: in vivo, rat; conditions: at all three BDNF concentrations (0.005%, 0.05%, 0.5% BDNF in P407), vs P407 vehicle alone
Description: as §1
(§6) Formulations: Human recombinant BDNF was suspended in the thermoreversible polymer Poloxamer 407 (16%) to reach a range of BDNF concentrations (0.005%, 0.05%, and 0.5% by weight).
as §2
(§7) Noise-induced cochlear synaptopathy: Rats received a single acoustic trauma (105 dB SPL, 8-16 kHz, 1 h) under anesthesia. 24 hours later (Day 1) animals received a single bilateral IT injection of the treatment regimens. Auditory function (ABR and ABR wave 1 amplitude) was monitored at day 1 and then every 7 days for 28 days, as illustrated in FIG. 16. At termination (Day 28), cochleae were collected and assessed for evidence of cochlear synaptopathy (IHC synaptic puncta counts).
as §5

SGNs = test: SGN complexity, dissociated SGNs (Example D); format: cell-based, rat; conditions: differences upon treatment, FIG. 7D
Text: SGNs were immunostained, imaged, and batch analyzed with PerkinElmer Harmony 4.6 software. Changes in the complexities of SGNs upon treatment with various agents were examined. […] All of the images in a single well were stitched together and analyzed. SGN somas are shown in the upper right panel and SGN neurites are shown in the lower left panel. As shown in the lower right panel, each neurite tree is assigned to a single cell for analysis. Depending on the stitching, occasionally neurites will not meet the criteria due to gaps that exceed a user-defined threshold.

[4] = test system: rats after acoustic trauma; test: Noise-induced cochlear synaptopathy, IHC synaptic puncta counts at various BDNF concentrations (Example K); format: in vivo, rat; conditions: at all three BDNF concentrations (0.005%, 0.05%, 0.5% BDNF in P407); Day 28; FIG. 19
Description: as §1, §6, §2, §7
(§8) Immunohistochemistry: Dissected cochleae were immunostained with antibodies against presynaptic (CtBP2) and postsynaptic (GluR2) proteins and MyosinVIIa to label hair cells. Cochleae were then frequency mapped and high-magnification images were obtained with a Zeiss LSM-880 confocal microscope and imaged at an interval of 0.35 μm.

[5] = test system: adult rats following noise damage; test: Noise-induced cochlear synaptopathy, IHC synaptic puncta counts (Example G); format: in vivo, rat; conditions: each frequency region throughout the cochlea; BDNF in P407 after noise; Day 28; FIG. 13C
Description: as §1, §3, §2, §4, §8
Intratympanic BDNF repairs cochlear synaptopathy in adult rats. […]

[6] = 0.005% BDNF in P407 injected 1, 3, or 7 days after noise exposure
[7] = 0.005% BDNF in P407 injected 14 days after noise exposure

B1: brain-derived neurotrophic factor (protein, UniProt P23560 129-247, looked up)
Neurotrophic factor BDNF: HSDPARRGELSVCDSISEWVTAADKKTAVDMSGGTVTVLEKVPVSKGQLKQYFYETKCNPMGYTKEGCRGIDKRHWNSQCRTTQSYVRALTMDSKKRIGWRFIRIDTSCVCTLTIKRGR
modifications: Neurotrophic factor BDNF in 16% poloxamer 407 gel
notes: Human recombinant BDNF
In the case of B1, the ABR threshold shift [1, 6] is reported as “more rapid recovery of initial threshold shifts and overall reduced levels of hearing loss”, the “wave I amplitudes” value [1, 6] is reported as “significant improvements” and the ABR threshold shift [1, 7] is reported as “did not showed a more rapid recovery of initial threshold shifts and overall reduced levels of hearing loss”. The “wave I amplitudes” value [1, 7] was “did not show significant improvements”, the ABR threshold shift ([2]; 0.05 mg/ml BDNF in P407, intratympanic injection 24 hours after noise exposure, ABR at days 1, 7, 14, and 28, vs P407 vehicle alone, FIG. 12A) was “more rapid recovery of initial threshold shifts and overall reduced levels of hearing loss” and the “ABR wave I amplitudes” value ([2]; BDNF in P407 vs vehicle treatment following noise exposure, across many frequencies, FIG. 12C) was “Significant improvements”. The ABR threshold shift ([3]; intratympanic injection 24 hours after noise exposure, FIG. 17) was “more rapid recovery of initial threshold shifts and overall reduced levels of hearing loss”, the “wave I amplitudes” value ([3]; FIG. 18) was “significant improvements” and the “total neurite length, total number of extremities, segments, and nodes per cell” value (SGNs) was “not statistically significant”. For the same molecule, the “synaptic puncta (co-expression of CtBp2 and GluR2) per inner hair cell” value [4] was “increased” and the “synaptic puncta (co-expression of CtBp2 and GluR2) per inner hair cell” value [5] was “increased”.
